In experiment [1] the target is HLA-DRA*01:01 W168R / HLA-DRB1*04:01 No mut. Description: BLI. (In general: BLI is a label-free optical method that tracks binding on a fibre tip over time.)
Experiment [2] concerns the target HLA-DRA*01:01 W168R / HLA-DRB1*04:01 F31I/H33N. Briefly: BLI.
Experiment [3] deals with HLA-DRA*01:01 No mut. / HLA-DRB1*04:01 F31V/H33N. Description: BLI.
Experiment [4] addresses HLA-DRA*01:01 W168R / HLA-DRB1*04:01 F31V/H33N. Briefly: BLI.
For experiment [5], the target named is HLA-DRA*01:01 No mut. / HLA-DRB1*04:01 F31I/H33N. Briefly: BLI.
In experiment [6] the target is T1, recombinant HLA-DR (DRA*01:01/DRB1*04:01) with covalently attached Influenza Hemagglutinin (HA) peptide (human;Influenza). Description: BLI.
Experiment [7] deals with T1, recombinant HLA-DR …. Description: BLI. This is another data set of the same source.
A further experiment deals with BJAB cells (human, UniProt P01903 26-254). Description: flow.
In experiment [8] the target is T1, recombinant HLA-DR …. Description: BLI. The source holds these as a separate data set.

Where two headings read alike, the source gives them in different places.

Chain of BJAB cells (P01903 whole entry): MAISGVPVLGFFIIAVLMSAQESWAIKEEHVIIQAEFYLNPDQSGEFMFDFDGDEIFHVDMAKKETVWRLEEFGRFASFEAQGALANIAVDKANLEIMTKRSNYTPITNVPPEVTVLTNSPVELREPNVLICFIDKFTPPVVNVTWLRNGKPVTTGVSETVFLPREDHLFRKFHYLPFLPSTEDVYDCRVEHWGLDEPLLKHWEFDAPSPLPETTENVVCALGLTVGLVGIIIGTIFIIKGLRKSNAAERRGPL

B1: 44H10 (antibody, V domains shown)
VH: QVQLKESGPGLVAPSQSLSITCTVSGFSLTSYGVHWVRQPPGKGLEWLGVIWAGGSINYNSALMSRLSISKDNFKSQVFLKMSSLQTDDTAMYYCARAYGDYVHYAMDYWGQGTSVTASS
VL: DIQMTQSPSSLSASLGQRVSLTCRASQEISGYLTWLQQKPDGTIKRLVYAASTLDSGVPKRFSGSRSGSDYSLTISSLESEDFADYYCLQYTNYPLTFGAGTKLELKR
In general, Kd refers to the equilibrium constant for the complex coming apart. Regarding B1, the Kd came to 2.8 nM in experiment [1]; 0.2 nM in experiment [2]; 0.4 nM in experiment [3]; 0.2 nM in experiment [4]; 0.5 nM in experiment [5].

B2: chimeric human IgG1 anti-HLA-DR 44H10 antibody (antibody, V domains shown)
VH: QVQLKESGPGLVAPSQSLSITCTVSGFSLTSYGVHWVRQPPGKGLEWLGVIWAGGSINYNSALMSRLSISKDNFKSQVFLKMSSLQTDDTAMYYCARAYGDYVHYAMDYWGQGTSVTASS
VL: DIQMTQSPSSLSASLGQRVSLTCRASQEISGYLTWLQQKPDGTIKRLVYAASTLDSGVPKRFSGSRSGSDYSLTISSLESEDFADYYCLQYTNYPLTFGAGTKLELKR
For the molecule B2, the dissociation constant Kd was found to be 199 nM in experiment [6] and 1.5 nM in experiment [7].

B3: V17 (antibody, V domains shown)
VH: QVTLKESGPVLVKPTETLTLTCTVSGFSLTSYGVHWIRQPPGKALEWLAVIWAGGSISYSTSLMSRLTISKDTSKSQVVLTMTNMDPVDTATYYCARAYGDYVHYAMDYWGQGTLVTVSS
VL: DIQMTQSPSSLSASVGDRVTITCRASQEISGYLTWLQQKPGKAPKLLIYAASTLDSGVPSRFSGSGSGTDFTLTISSLQPEDFATYYCLQYTNYPLTFGQGTKLEIK
In general, EC50 refers to the concentration at which the effect is half-maximal. For B3, the concentration for a half-maximal effect (EC50) in the experiment with BJAB cells is 5.02 µg/mL.

B4: V14 with the V71K and F78V mutations in the VH (antibody, V domains shown)
VH: QVQLQESGPGLVKPSETLSLTCTVSGFSLTSYGVHWIRQPPGKGLEWIGVIWAGGSINYNSALMSRVTISKDTSKNQVSLKLSSVTAADTAVYYCARAYGDYVHYAMDYWGQGTLVTVSS
VL: DIQMTQSPSSLSASVGDRVTITCRASQEISGYLTWLQQKPGKAPKLLIYAASTLDSGVPSRFSGSGSGTDFTLTISSLQPEDFATYYCLQYTNYPLTFGQGTKLEIK
Turning to B4, the Kd in [8] is 206 nM.

B5: V20 (K60 back-mutation) (antibody, V domains shown)
VH: QVTLKESGPVLVKPTETLTLTCTVSGFSLTSYGVHWIRQPPGKALEWLAVIWAGGSISYSTSLMSRLTISKDTSKSQVVLTMTNMDPVDTATYYCARAYGDYVHYAMDYWGQGTLVTVSS
VL: DIQMTQSPSSLSASVGDRVTITCRASQEISGYLTWLQQKPGKAPKLLIYAASTLDSGVPKRFSGSGSGTDFTLTISSLQPEDFATYYCLQYTNYPLTFGQGTKLEIK
Take B5: the EC50 with BJAB cells turned out to be 2.21 µg/mL.

B6: V19 (R66 back-mutation) (antibody, V domains shown)
VH: QVTLKESGPVLVKPTETLTLTCTVSGFSLTSYGVHWIRQPPGKALEWLAVIWAGGSISYSTSLMSRLTISKDTSKSQVVLTMTNMDPVDTATYYCARAYGDYVHYAMDYWGQGTLVTVSS
VL: DIQMTQSPSSLSASVGDRVTITCRASQEISGYLTWLQQKPGKAPKLLIYAASTLDSGVPSRFSGSRSGTDFTLTISSLQPEDFATYYCLQYTNYPLTFGQGTKLEIK
As to B6, the concentration giving a half-maximal response (EC50) with BJAB cells was determined as 2.02 µg/mL.

B7: humanized 44H10 variant V21 (antibody, V domains shown)
VH: QVTLKESGPVLVKPTETLTLTCTVSGFSLTSYGVHWIRQPPGKALEWLAVIWAGGSISYSTSLMSRLTISKDTSKSQVVLTMTNMDPVDTATYYCARAYGDYVHYAMDYWGQGTLVTVSS
VL: DIQMTQSPSSLSASVGDRVTITCRASQEISGYLTWLQQKPGKAPKLLIYAASTLDSGVPKRFSGSRSGTDFTLTISSLQPEDFATYYCLQYTNYPLTFGQGTKLEIK
Regarding B7, the equilibrium dissociation constant (Kd) came out at 221 nM in experiment [6] and 157 nM in experiment [8].

Values taken from US20250312438A1 (published 2025).
